The results in this text go back to patent publication US5834244.

The test has as its target rabbit TF-FVIIa in the PT assay (rabbit thromboplastin with rabbit plasma) (rabbit).

B1: IV-32B (designed binder)
chain: VREVCSEQAEPGPCKALMKRWYFDVTEGKCAPFYYGGCYGNRNNFDTEEYCAAVCGSA
The molecule B1 registered a fold increase of clotting time over baseline, PT assay in rabbit plasma (fold increase over baseline at 50 µM) of 1.2.

B2: IV-54C (designed binder)
chain: VREVCSEQAEPGPCRALMKRWYFDVTEGKCAPFVYGGCYGNRNNFDTEEYCAAVCGSA
B2 yielded a fold increase of clotting time over baseline, PT assay in rabbit plasma (fold increase over baseline at 50 µM) of 3.5.

B3: IV-49C (designed binder)
chain: VREVCSEQAEPGPCRALMKRWYFDVTEGKCAPFIYGGCYGNRNNFDTEEYCAAVCGSA
On to B3, for which the fold increase of clotting time over baseline, PT assay in rabbit plasma (fold increase over baseline at 50 µM) came to 4.4.
